In patent US20250325643A1 (Genmab, published 2025):

Columns and labels:
[1] = target: T1, cynomolgus monkey CD27 expressed on cells (cynomolgus monkey T cells, transfected HEK293F cells) (cynomolgus monkey, UniProt P26842 20-260 (human entry)); experiment: flow cytometry on HEK293F cells transiently transfected with cynomolgus monkey CD27, PE-labelled goat anti-human IgG, median MFI PE
T1 construct: also called cyno CD27
T1 chain: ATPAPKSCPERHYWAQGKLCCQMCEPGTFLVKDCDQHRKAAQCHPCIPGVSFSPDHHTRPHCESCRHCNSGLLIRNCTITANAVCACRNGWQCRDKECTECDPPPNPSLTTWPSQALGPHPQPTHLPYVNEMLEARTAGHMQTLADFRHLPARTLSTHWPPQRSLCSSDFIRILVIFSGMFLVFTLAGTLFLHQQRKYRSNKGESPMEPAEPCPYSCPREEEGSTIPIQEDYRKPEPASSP
Description: (§1) Non-binding control antibody IgG1-b12-FEAR was used as negative control antibody. *N.B. IgG1-CD27-A, -B, -C, -D and -E carried mutations F405L-L234F-L235E-D265A in the IgG Fc domain, which are functionally irrelevant in the context of this experiment.
(§2) Cells were seeded in 96-wells plates (100,000 cells per well; Greiner Bio-one, Cat #650180) for sequential incubations, with washing steps in between with FACS buffer, consisting of PBS (Lonza, Cat #BE17-517Q)+1% BSA (Roche, Cat #10735086001)+0.02% Sodium Azide (Bio-World, Cat #41920044-3). The following incubations were applied: antibody concentration series (0.0001-10 μg/mL final concentration) for 30 min at 4° C.; live/dead marker FVS510 (BD, Cat #564406, diluted 1:1,000 in PBS) for 20 min at RT; PE-labeled polyclonal goat anti-human IgG (Jackson Immuno Research, Cat #109-116-098, diluted 1:500) for 30 min at 4° C.; and anti-CD3 antibody for T-cell identification (anti-human CD3: BD, Cat #555335, diluted 1:10; anti-cyno CD3: Miltenyi, Cat #130-091-998, diluted 1:10) for 30 min at 4° C. All samples were analyzed on a FACSCelesta flow cytometer (BD) and FlowJo software. Data were processed and visualized using GraphPad Prism.

[2] = target: T2, human CD27 expressed on cells (T cells, transfected HEK293F cells, Daudi cells, NFκB-luc2/CD27 Jurkat … (human, UniProt P26842 20-240)); experiment: flow cytometry on HEK293F cells transiently transfected with human CD27, PE-labelled goat anti-human IgG, median MFI PE
T2 construct: also called TNFRSF7
T2 sequence: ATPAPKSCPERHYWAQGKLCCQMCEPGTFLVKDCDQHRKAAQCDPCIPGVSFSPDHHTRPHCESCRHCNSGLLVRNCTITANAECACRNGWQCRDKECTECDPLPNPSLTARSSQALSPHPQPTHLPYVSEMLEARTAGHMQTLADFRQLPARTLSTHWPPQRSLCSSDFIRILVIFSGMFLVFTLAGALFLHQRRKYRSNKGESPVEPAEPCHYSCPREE

[3] = target: T2, human CD27 expressed on cells (T cells, …); experiment: flow cytometry on T cells in human PBMC (endogenous CD27), PE-labelled goat anti-human IgG, median MFI PE
Description: as §1, §2

[4] = target: T1, cynomolgus monkey CD27 expressed on …; experiment: flow cytometry on T cells in cynomolgus monkey PBMC (endogenous CD27), PE-labelled goat anti-human IgG, median MFI PE
Description: as §1, §2

[5] = target: T3, human CD27-A59T variant expressed on transiently transfected HEK293F cells (human, UniProt P26842 20-260); experiment: flow cytometry on HEK293F cells transiently transfected with human CD27-A59T, PE-labelled goat anti-human IgG, median MFI PE
T3 sequence: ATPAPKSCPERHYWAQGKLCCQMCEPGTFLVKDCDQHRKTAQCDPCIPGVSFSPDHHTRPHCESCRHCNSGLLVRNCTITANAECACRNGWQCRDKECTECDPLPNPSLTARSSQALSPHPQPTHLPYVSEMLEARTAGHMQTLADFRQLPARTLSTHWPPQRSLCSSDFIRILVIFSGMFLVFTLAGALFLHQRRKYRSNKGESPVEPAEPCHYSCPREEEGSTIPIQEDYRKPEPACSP
Description: Approximately 19% of the human population expresses a natural CD27 variant harboring an A59T mutation in the extracellular domain (SEQ ID NO. 2). […] Non-binding antibody IgG1-b12-FEAL was used as a negative control antibody. […] After incubation, antibodies were PE-labeled with polyclonal goat anti-human IgG. Binding was analyzed on a FACSCelesta flow cytometer (BD) and FlowJo software. Data were processed and visualized using GraphPad Prism v.8. *N.B. IgG1-CD27-A, -B and -C carried mutations F405L-L234F-L235E-D265A in the IgG Fc domain, which are functionally irrelevant in the context of this experiment.

[6] = target: T4, recombinant His-tagged human FcγRIa (Sino Biological, Cat #10256-H08S-B) (human, UniProt P12314 16-288); experiment: SPR (Biacore): His-tagged FcγRIa captured on an anti-His chip, antibody injected; resonance units against antibody concentration
T4 construct: Bought protein; not shown: His tag
T4 sequence (P12314 16-288 limits assumed, stated change not applied): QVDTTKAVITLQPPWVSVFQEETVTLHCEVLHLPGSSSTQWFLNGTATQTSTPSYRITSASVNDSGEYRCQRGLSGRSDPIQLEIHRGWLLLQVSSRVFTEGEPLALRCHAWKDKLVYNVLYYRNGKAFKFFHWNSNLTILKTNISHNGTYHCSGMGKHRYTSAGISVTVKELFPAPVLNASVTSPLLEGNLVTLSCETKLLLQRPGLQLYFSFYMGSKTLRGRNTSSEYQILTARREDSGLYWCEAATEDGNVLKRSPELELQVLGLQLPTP
Description: Binding of IgG1-CD27-A-P329R-E345R to human FcγR variants was analyzed using a Biacore surface plasmon resonance (SPR) system and compared to an anti-HIV gp120 antibody IgG1-b12 (ctrl). Biacore Series S Sensor Chips CM5 (Cytiva, Cat #29104988) were covalently coated with anti-His antibody using amine-coupling and His capture kits (Cytiva, Cat #BR100050 and Cat #29234602) according to the manufacturer's instructions. […] After three cycles of buffer, antibody samples were injected for 36 cycles to generate binding curves using antibody ranges of 0-3,000 nM for FcγRI and 0-10,000 nM for the other FcγRs. Each sample that was analyzed on an FcR-coated surface (Active Surface) was also analyzed on a parallel flow-cell without FcR (Reference Surface), which was used for background correction. Dissociation from the anti-His-coated surface was performed by regeneration of the surface using 10 mM Glycine-HCl pH 1.5 (Cytiva, Cat #BR100354). Sensograms were generated using Biacore Insight Evaluation software (Cytiva) and a four-parameter logistic (4PL) fit was applied to calculate relative binding of IgG1-CD27-A-P329R-E345R against the reference sample (ctrl).

[7] = target: T5, human FcγRIa on monocyte-derived macrophages (M0, M1, hMDM) (human, UniProt P12314 16-374); experiment: flow cytometry on M0 monocyte-derived macrophages, PE-labelled goat anti-human IgG
T5 construct: whole, on cells; The macrophages also express FcγRII and FcγRIIIa
T5 sequence (P12314 16-374): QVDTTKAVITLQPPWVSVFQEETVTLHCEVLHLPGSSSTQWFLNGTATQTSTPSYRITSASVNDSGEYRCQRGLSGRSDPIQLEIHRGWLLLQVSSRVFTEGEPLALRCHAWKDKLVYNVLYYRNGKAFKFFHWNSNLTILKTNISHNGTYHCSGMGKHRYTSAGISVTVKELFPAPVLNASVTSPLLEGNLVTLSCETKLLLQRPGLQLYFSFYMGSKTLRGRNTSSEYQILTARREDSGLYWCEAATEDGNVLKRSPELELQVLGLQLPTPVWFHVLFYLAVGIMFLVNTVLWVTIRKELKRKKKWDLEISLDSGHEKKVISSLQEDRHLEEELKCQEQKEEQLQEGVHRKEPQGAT

[8] = target: T2, human CD27 expressed on cells (T cells, …); experiment: flow cytometry on CD4+ T cells in human PBMC, FITC-conjugated goat anti-human IgG F(ab')2, median FITC
Description: Binding of IgG1-CD27-A-P329R-E345R to CD27 on human healthy donor T cells was characterized in more detail using flow cytometry. Anti-HIV gp120 antibody variant IgG1-b12-P329R-E345R was used as non-binding control antibody (ctrl). Human PBMCs were isolated from buffy coats obtained from human healthy donors. PBMCs (1×10⁵ cells/well) in FACS buffer were added to polystyrene 96-well round-bottom plates (Greiner bio-one, Cat #650101) and pelleted by centrifugation at 300×g for 3 min at 4° C. The cells were resuspended in 50 μL/well serial antibody dilutions in FACS buffer (range 0.0015 to 10 μg/mL in 3-fold dilution steps) and incubated for 30 min at 4° C. Cells were pelleted, washed twice with FACS buffer and incubated in 50 μL/well with FITC-conjugated secondary antibody (FITC AffiniPure F(ab′)₂ fragment goat anti-human IgG, F(ab′)₂ fragment specific, Jackson ImmunoResearch, Cat #109-096-097, diluted 1:100) for 30 min at 4° C. in the dark. […] The samples were measured by flow cytometry on an LSRFortessa (BD) flow cytometer and analyzed using FlowJo software. Binding curves were analyzed using non-linear regression (sigmoidal dose-response with variable slope) using GraphPad Prism 8 software.

[9] = target: T6, human C1q (from normal human serum) (human, UniProt P02745 23-245; P02746 28-253; P02747 29-245); experiment: flow cytometry: human T cells opsonised with the antibody, 20% normal human serum as source of C1q, FITC-labelled rabbit anti-human C1q
T6 construct: 20% normal human serum was the source of C1q
T6 sequence (P02745 23-245 limits assumed, chain 1 of 3): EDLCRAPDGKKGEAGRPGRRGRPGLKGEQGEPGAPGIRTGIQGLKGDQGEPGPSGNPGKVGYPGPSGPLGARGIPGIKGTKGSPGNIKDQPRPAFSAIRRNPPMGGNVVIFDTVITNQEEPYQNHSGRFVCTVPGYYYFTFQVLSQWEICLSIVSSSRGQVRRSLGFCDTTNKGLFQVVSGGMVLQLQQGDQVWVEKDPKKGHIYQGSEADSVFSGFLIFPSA
T6 sequence (P02746 28-253 limits assumed, chain 2 of 3): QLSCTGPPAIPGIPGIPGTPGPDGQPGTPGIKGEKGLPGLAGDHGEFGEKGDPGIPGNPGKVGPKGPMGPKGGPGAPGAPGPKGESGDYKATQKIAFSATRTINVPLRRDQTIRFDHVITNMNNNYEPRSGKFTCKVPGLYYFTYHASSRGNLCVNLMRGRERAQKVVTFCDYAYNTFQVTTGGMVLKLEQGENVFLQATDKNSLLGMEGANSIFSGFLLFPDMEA
T6 sequence (P02747 29-245 limits assumed, chain 3 of 3): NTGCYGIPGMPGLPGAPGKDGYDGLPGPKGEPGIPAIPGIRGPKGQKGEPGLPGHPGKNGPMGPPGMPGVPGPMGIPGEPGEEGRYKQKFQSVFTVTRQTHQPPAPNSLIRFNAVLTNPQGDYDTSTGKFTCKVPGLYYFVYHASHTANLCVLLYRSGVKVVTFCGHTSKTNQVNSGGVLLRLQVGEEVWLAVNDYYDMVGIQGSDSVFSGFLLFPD

B1: IgG1-CD27-A carrying mutations F405L-L234F-L235E-D265A in the IgG Fc domain (antibody, V domains shown)
VH: QVQLMQSGSELKKPGASVKVSCRASGYTFTTYAMNWVRQAPGQGPEWMGWINTNTGNPTYAQGFTGRFVFSLDTTVTTTYLQISSLKAEDTAVYFCAREAGSFDYWGQGTLVTVSS
VL: QSALTQPASVSGSPGQSITISCTGTSSDVYYYNYVSWYQQHPGRAPKLVIYDVSNRPSGVSNRFSGSKSGNTASLTISGLRAEDEADYYCSSYTVNRVWVFGGGTKLTVL
B1 was tested. Which “EC50 (read off the curve)” value [1] did it give?
Its value is about 0.06 µg/mL.

And the “EC50 (read off the curve)” value [2]?
The value was about 0.1 µg/mL.

What about the “EC50 (read off the curve)” value [3] of the same binder?
Its value is about 0.04 µg/mL.

And the “EC50 (read off the curve)” value [4]?
The value was about 0.04 µg/mL.

What about the “EC50 (read off the curve)” value [5] of the same binder?
The value was about 0.2 µg/mL.

B2: IgG1-b12-FEAL (antibody, V domains shown)
VH: QVQLVQSGAEVKKPGASVKVSCQASGYRFSNFVIHWVRQAPGQRFEWMGWINPYNGNKEFSAKFQDRVTFTADTSANTAYMELRSLRSADTAVYYCARVGPYSWDDSPQDNYYMDVWGKGTTVIVSS
VL: EIVLTQSPGTLSLSPGERATFSCRSSHSIRSRRVAWYQHKPGQAPRLVIHGVSNRASGISDRFSGSGSGTDFTLTITRVEPEDFALYYCQVYGASSYTFGQGTKLERK
notes: also called ctrl
Does B2 bind [5]?
Result: no binding (tested: 10 µg/mL)

B3: IgG1-b12 (wild-type IgG1 Fc) (antibody)
VH: not shown
VL: EIVLTQSPGTLSLSPGERATFSCRSSHSIRSRRVAWYQHKPGQAPRLVIHGVSNRASGISDRFSGSGSGTDFTLTITRVEPEDFALYYCQVYGASSYTFGQGTKLERKRTVAAPSVFIFPPSDEQLKSGTASVVCLLNNFYPREAKVQWKVDNALQSGNSQESVTEQDSKDSTYSLSSTLTLSKADYEKHKVYACEVTHQGLSSPVTKSFNRGEC
notes: also called WT IgG1-b12; ctrl
B3 was tested. Which “EC50 (read off the curve)” value [6] did it give?
The value was about 60 nM.

B4: IgG1-b12-P329R-E345R (antibody)
VH: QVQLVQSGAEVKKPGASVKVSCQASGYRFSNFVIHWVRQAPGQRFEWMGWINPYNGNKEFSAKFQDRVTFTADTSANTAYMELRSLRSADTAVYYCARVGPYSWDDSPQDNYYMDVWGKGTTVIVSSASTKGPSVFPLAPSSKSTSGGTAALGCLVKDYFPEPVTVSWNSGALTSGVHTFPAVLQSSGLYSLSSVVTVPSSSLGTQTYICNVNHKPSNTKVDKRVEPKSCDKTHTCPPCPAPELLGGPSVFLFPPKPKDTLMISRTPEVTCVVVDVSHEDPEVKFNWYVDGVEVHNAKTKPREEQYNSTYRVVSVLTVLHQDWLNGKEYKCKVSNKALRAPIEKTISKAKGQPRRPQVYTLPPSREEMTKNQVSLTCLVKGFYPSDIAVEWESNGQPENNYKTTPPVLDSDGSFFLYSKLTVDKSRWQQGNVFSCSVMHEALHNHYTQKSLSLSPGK
VL: B3 VL
notes: also called ctrl; IgG1-b12-E345R-P329R
Does B4 bind [7]?
Result: no binding (tested: 30 µg/mL)

Does B4 bind [8]?
Result: no binding (tested: 10 µg/ml)

B5: IgG1-CD27-A (wild-type IgG1 Fc) (antibody)
VH: not shown
VL: QSALTQPASVSGSPGQSITISCTGTSSDVYYYNYVSWYQQHPGRAPKLVIYDVSNRPSGVSNRFSGSKSGNTASLTISGLRAEDEADYYCSSYTVNRVWVFGGGTKLTVLGQPKAAPSVTLFPPSSEELQANKATLVCLISDFYPGAVTVAWKADSSPVKAGVETTTPSKQSNNKYAASSYLSLTPEQWKSHRSYSCQVTHEGSTVEKTVAPTECS
notes: Human IgG1 heavy chain backbone, wild-type Fc; also called WT IgG1-CD27-A; IgG-CD27-A
Does B5 bind [9]?
Result: no binding (tested: 15 µg/mL)
